Patent publication US20090253152A1 (OREGON HEALTH AND SCIENCE UNIVERSITY, published 2009)
Ends that are not written are not given here.

Target: T1, insulin-like growth factor I (IGF-I) (human, UniProt P05019 49-118, 125I-labelled in the ligand blots, affinity cross-linking and solution binding assay; unlabelled in BIAcore)
T1 construct: Human is stated only for the BIAcore material (rhIGF-I); also called rhIGF-I
Assay: dot ligand blot: E. coli GST-fusion lysate dotted on nitrocellulose, probed with 125I-IGF-I; anti-GST dot immunoblot as loading control
Procedure: For dot blots, 2.5 μl of sample were dotted directly onto the nitrocellulose membrane. The membranes were then blocked for 1 h at 21° C. in 4% milk/TBS-T, followed by an overnight incubation at 4° C. with anti-IGFBP-3 monoclonal antibody (Diagnostic Systems Laboratories, Inc., Webster, Tex.), anti-GST polyclonal antibody (Amersham Pharmacia Biotech, Piscataway, N.J.), anti-PY20 monoclonal antibody (Santa Cruz Biotech, Santa Cruz, Calif.), or anti-IRS-1 polyclonal antibody (Upstate, Lake Placid, N.Y.), all at 1:3000 dilutions. Membranes were washed with TBS-T and incubated for 1 h at 21° C. with a 1:3000 dilution of horseradish peroxidase-linked antirabbit or antimouse IgG secondary antibodies (Amersham Pharmacia Biotech, Piscataway, N.J.). Proteins were detected by enhanced chemiluminescence reagents, according to the manufacturer's protocol (NEN Life Science Products, Boston, Mass.).
Lane 1, ⁽¹⁻⁴⁶⁾IGFBP-3; lane 2, ⁽¹⁻⁷⁵⁾IGFBP-3; lane 3, ⁽¹⁻⁸⁰⁾IGFBP-3; lane 4, ⁽¹⁻⁸⁷⁾IGFBP-3; lane 5, full-length IGFBP-3; lane 6, pGEX4T-1 vector alone. The binding of these IGFBP-3 “deletion” fragments to [¹²⁵I]-IGF-I is shown, along with wild-type IGFBP-3 binding, and control vector (pGEX4T-1) to [¹²⁵I]-IGF-I. For each protein sample, the protein extract was directly pipetted onto nitrocellulose paper, incubated in 1% BSA with [¹²⁵I]-IGF-I, and then exposed to film. […]

T1 sequence (P05019 49-118 limits assumed): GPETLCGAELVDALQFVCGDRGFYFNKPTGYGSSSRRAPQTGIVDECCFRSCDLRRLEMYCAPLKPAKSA

binding result: no binding
B1: (1-46)IGFBP-3 FLAG-tagged fragment, GST-fusion (E. coli) (other, human)
chain: GASSAGLGPVVRCEPCDARALAQCAPPPAVCAELVREPGCGCCLTCDYKDDDDK
modifications: cysteine pairing not given here; also: GST fusion with the vector's linker, linker sequence and fusion end not given here
notes: range 1-46; Tested as crude E. coli cell lysate; not shown: glutathione S-transferase encoded by vector pGEX4T-1, with the vector's linker
